The values that follow are results of earlier work, collected in paper PMC4301871, “WW Domains of the Yes-Kinase-Associated-Protein (YAP) Transcriptional Regulator Behave as Independent Units with Different Binding Preferences for PPxY Motif-Containing Ligands” (PLoS ONE, 2015).

Like-named read-outs stand apart in the source and are kept apart here.

Series [1] addresses p53BP2 (Homo sapiens).
The target in series [2] is p53BP2 (Homo sapiens). The source holds these as a separate data set.

Chain of YAP WW1 (P46937 168-207): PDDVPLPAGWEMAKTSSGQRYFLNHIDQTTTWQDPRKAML
Chain of YAP WW2 (P46937 227-266): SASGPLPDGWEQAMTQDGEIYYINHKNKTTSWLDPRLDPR

The Kd is the free concentration of one partner at which half of the binding sites on the other are occupied at equilibrium, for simple one-to-one binding. In the case of YAP WW1 (from UniProt P46937), the Kd with p53BP2 (Homo sapiens) [1] was 1.8 µM.

Turning to YAP WW2 (from UniProt P46937), the Kd with p53BP2 (Homo sapiens) [2] is 12 µM.
